{"source": "patent US20150246971A1", "about": "(RESEARCH DEVELOPMENT FOUNDATION, published 2015)", "key": {"[1]": {"target": "T1, soluble human JAM-C-FLAG protein (human, UniProt Q9BX67 32-237)", "T1 construct": "Amine-coupled to a Biacore CM5 chip; also called immobilized JAM-C; human soluble JAM-C FLAG protein", "T1 sequence": "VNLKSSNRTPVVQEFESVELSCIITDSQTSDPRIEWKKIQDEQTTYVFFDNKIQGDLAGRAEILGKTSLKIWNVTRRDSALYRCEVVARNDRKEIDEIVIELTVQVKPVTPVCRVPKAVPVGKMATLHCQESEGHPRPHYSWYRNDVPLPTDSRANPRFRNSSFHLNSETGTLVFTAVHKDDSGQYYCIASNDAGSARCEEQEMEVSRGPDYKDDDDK", "experiment": "SPR (Biacore 2000), JAM-C FLAG on a CM5 chip, response at the end of injection", "description": "(§1) To confirm the specificity of the JAM-C/JAM-B interaction at the molecular level, soluble human JAM-C-FLAG protein was covalently immobilized to a Biacore CM5 sensor chip Immobilization was assessed by testing the binding of anti-JAM-C monoclonal and polyclonal antibodies. […] Homotypic JAM-C/JAM-C interaction was never observed under these conditions, even when injecting higher concentrations of JAM-C Fc. […] To validate these findings for the model of human cells injected into mice, the inventors subsequently confirmed that human JAM-C binds to murine JAM-B to the same extent as to human JAM-B (FIG. 6B).\n(§2) Interaction studies were performed on a Biacore 2000 (GE Healthcare). Recombinant proteins were immobilized at a concentration of 5 μg/mL on a CM5 sensor chip using the amine coupling kit (NHS-EDC) provided by the Biacore supplier. Background signal from a reference channel without soluble JAM-C was automatically subtracted. Proteins (30 μL) were injected (Kinject) in running buffer (400 μM Tris-HCl pH 7.4, containing 145 mM NaCl) at a flow rate of 20 μL/min."}, "[2]": {"target": "T2, human JAM-C (full-length, on cells) (human, UniProt Q9BX67 32-310)", "T2 construct": "whole, on cells; also called HuJAM-C; junctional adhesion molecule C", "T2 sequence (looked up)": "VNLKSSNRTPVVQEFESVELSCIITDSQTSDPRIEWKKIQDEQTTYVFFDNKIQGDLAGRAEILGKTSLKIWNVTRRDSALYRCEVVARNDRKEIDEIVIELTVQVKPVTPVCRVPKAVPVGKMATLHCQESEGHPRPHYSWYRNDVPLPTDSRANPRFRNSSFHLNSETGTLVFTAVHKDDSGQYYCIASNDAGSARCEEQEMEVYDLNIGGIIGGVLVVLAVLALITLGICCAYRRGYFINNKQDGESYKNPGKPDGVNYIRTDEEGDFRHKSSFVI", "experiment": "adhesion of CFSE-labelled JAM-C-transfected Raji cells to coated Fc protein (human and murine JAM-B Fc coated)", "description": "(§3) Although homotypic JAM-C/JAM-C and heterotypic JAM-C/JAM-B interactions have been reported, the endothelial ligand for JAM-C on B cells had not been described. To investigate this interaction, adhesion assays were performed. Culture plates were coated with recombinant human and murine JAM-B Fc, human JAM-C Fc, human VCAM-1 Fc as a positive control, and JAM-A Fc as a negative control. The JAM-Cneg B cell line Raji was transfected with the full-length human JAM-C cDNA and mock-transfected cells were used as a control (FIG. 5A). Whereas mock-transfected Raji cells adhered only to VCAM-1, JAM-C transfected Raji cells adhered to JAM-B and VCAM-1, but adhered neither to JAM-C nor to JAM-A (FIG. 5B-C). […]\n(§4) For cell adhesion assays, NUNC 269787 adhesion plates were successively coated with anti-huFc antibody (Jackson Immuno Research) at 2.5 μg/mL, Fc-labeled proteins at 2.5 μg/mL, and blocked with 1% BSA (purified fraction V, Sigma). […] One hundred microliters of lysed cells were transferred into a 96-well plate (micro-clear plates black, Greiner), and fluorescence (πex 485 nm; πem 538 nm) was measured with a Flex Station Microplate reader (Molecular Devices). Data were expressed either in arbitrary units or as the ratio of the fluorescence measured on JAM-B Fc coated wells to the fluorescence measured on wells coated with Fc control protein."}, "[3]": {"target": "T1, soluble human JAM-C-FLAG protein", "experiment": "SPR (Biacore 2000), JAM-C FLAG on a CM5 chip", "description": "as §1, §2"}, "[4]": {"target": "T2, human JAM-C (full-length, on cells)", "experiment": "adhesion of CFSE-labelled JAM-C-transfected Raji cells to coated Fc protein", "description": "as §3, §4"}}}
{"binder": "murine JAM-B FLAG (ligand, UniProt Q9JI59 29-236, looked up, also called murine JAM-B FLAG protein; not shown: FLAG tag) FSASKDHRQEVTVIEFQEAILACKTPKKTTSSRLEWKKVGQGVSLVYYQQALQGDFKDRAEMIDFNIRIKNVTRSDAGEYRCEVSAPTEQGQNLQEDKVMLEVLVAPAVPACEVPTSVMTGSVVELRCQDKEGNPAPEYIWFKDGTSLLGNPKGGTHNNSSYTMNTKSGILQFNMISKMDSGEYYCEARNSVGHRRCPGKRMQVDVLN", "values": [{"measurement": "binding result", "setting": "[1]", "result": "binds"}]}
{"binder": "recombinant murine JAM-B Fc (Fc fusion, UniProt Q9JI59 29-236, looked up, Coated on adhesion plates; also called mouse JAM-B; not shown: Fc tag (captured by anti-huFc antibody)) FSASKDHRQEVTVIEFQEAILACKTPKKTTSSRLEWKKVGQGVSLVYYQQALQGDFKDRAEMIDFNIRIKNVTRSDAGEYRCEVSAPTEQGQNLQEDKVMLEVLVAPAVPACEVPTSVMTGSVVELRCQDKEGNPAPEYIWFKDGTSLLGNPKGGTHNNSSYTMNTKSGILQFNMISKMDSGEYYCEARNSVGHRRCPGKRMQVDVLN", "values": [{"measurement": "binding result", "setting": "[2]", "result": "binds"}]}
{"binder": "recombinant human JAM-B Fc (Fc fusion, Bought (R&D); also called soluble JAM-B Fc; soluble human JAM-B Fc; not shown: Fc tag (detected with anti-human IgG1 Fc)) FSAPKDQQVVTAVEYQEAILACKTPKKTVSSRLEWKKLGRSVSFVYYQQTLQGDFKNRAEMIDFNIRIKNVTRSDAGKYRCEVSAPSEQGQNLEEDTVTLEVLVAPAVPSCEVPSSALSGTVVELRCQDKEGNPAPEYTWFKDGIRLLENPRLGSQSTNSSYTMNTKTGTLQFNTVSKLDTGEYSCEARNSVGYRRCPGKRMQVDDLNIS", "values": [{"measurement": "binding result", "setting": "[3]", "result": "binds"}, {"measurement": "binding result", "setting": "[4]", "result": "binds"}]}
{"binder": "human JAM-B FLAG (ligand, also called human JAM-B FLAG protein; not shown: FLAG tag) FSAPKDQQVVTAVEYQEAILACKTPKKTVSSRLEWKKLGRSVSFVYYQQTLQGDFKNRAEMIDFNIRIKNVTRSDAGKYRCEVSAPSEQGQNLEEDTVTLEVLVAPAVPSCEVPSSALSGTVVELRCQDKEGNPAPEYTWFKDGIRLLENPRLGSQSTNSSYTMNTKTGTLQFNTVSKLDTGEYSCEARNSVGYRRCPGKRMQVDDLNIS", "values": [{"measurement": "binding result", "setting": "[3]", "result": "binds"}]}
